According to patent publication US10738094B2, “Peptides and combination of peptides for use in immunotherapy against ovarian cancer and other cancers” (immatics biotechnologies GmbH, priority 2015, dated 2020):

Target: HLA-A*02:01 (Homo sapiens, UniProt P04439, D140Y/D185E/D98H/E176V/E277Q/G131W/G231S/I119V/I121R/I166T/I218V/L300P/L318F/N151K/N90K/P208A/P217A/Q86G/Q94H/R138H/R169H/T345S)
Test: MHC binding assay (UV-ligand exchange, beta2m ELISA)
Settings: binding to HLA-A*02:01 ranged by peptide exchange yield (UV-ligand exchange, β2m ELISA)
Method in brief: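 Stabilised complexes were quantified via their β2m light chain: 100-fold-diluted monomers bound to streptavidin plates, then HRP anti-β2m at 2 ug/ml for 1 h at 37° C., TMB read at 450 nm. The value is the yield of UV-induced exchange of a photocleavable peptide for the candidate.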

Peptide exchange	Substance
“+++” (≥50 = +++)	446 (QLIPALAKV; listed as Homo sapiens) [compound 446]
“+++” (≥50 = +++)	155 (RVANLHFPSV; listed as Homo sapiens) [compound 155]
“+++” (≥50 = +++)	129 (GLLDGGVDILL; listed as Homo sapiens) [compound 129]
“++” (≥20% = ++)	207 (GLTSTNAEV; listed as Homo sapiens) [compound 207]
“+++” (≥50 = +++)	599 (YLLNDASLISV; listed as Homo sapiens) [compound 599]
“+++” (≥50 = +++)	342 (HIYDKVMTV; listed as Homo sapiens) [compound 342]
“+++” (≥50 = +++)	430 (HLYSSIEHLTT; listed as Homo sapiens) [compound 430]
“+++” (≥50 = +++)	463 (SLVESHLSDQLTL; listed as Homo sapiens) [compound 463]
“++” (≥20% = ++)	523 (YQIPRTFTL; listed as Homo sapiens) [compound 523]
“+++” (≥50 = +++)	254 (TLLAFIMEL; listed as Homo sapiens) [compound 254]
“+++” (≥50 = +++)	573 (ILVANAIVGV; listed as Homo sapiens) [compound 573]
“+++” (≥50 = +++)	173 (LLDSASAGLYL; listed as Homo sapiens) [compound 173]
“++” (≥20% = ++)	524 (ALIENLTHQI; listed as Homo sapiens) [compound 524]
“+++” (≥50 = +++)	555 (YVLEGLKSV; listed as Homo sapiens) [compound 555]
“++” (≥20% = ++)	566 (VIADGGIQNV; listed as Homo sapiens) [compound 566]
“+++” (≥50 = +++)	369 (GLFPEHLIDV; listed as Homo sapiens) [compound 369]
“++” (≥20% = ++)	210 (LLLNAVLTV; listed as Homo sapiens) [compound 210]
“+++” (≥50 = +++)	205 (SLYPGTETMGL; listed as Homo sapiens) [compound 205]
“+++” (≥50 = +++)	525 (VLLEAGEGLVTI; listed as Homo sapiens) [compound 525]
“++” (≥20% = ++)	220 (LLQKFVPEI; listed as Homo sapiens) [compound 220]
“+++” (≥50 = +++)	102 (YLFESEGLVL; listed as Homo sapiens) [compound 102]
“++” (≥20% = ++)	278 (QLLDVVLTI; listed as Homo sapiens) [compound 278]
“++” (≥20% = ++)	274 (SLLFSLFEA; listed as Homo sapiens) [compound 274]
“++” (≥20% = ++)	269 (RVLEVGALQAV; listed as Homo sapiens) [compound 269]
“++” (≥20% = ++)	63 (YLLPSGGSVTL; listed as Homo sapiens) [compound 63]
“+++” (≥50 = +++)	562 (YLEELPEKLKL; listed as Homo sapiens) [compound 562]

Peptide exchange	Substance
“+++” (≥50 = +++)	335 (YSLSSVVTV; listed as Homo sapiens) [compound 335]
“+++” (≥50 = +++)	71 (GILARIASV; listed as Homo sapiens) [compound 71]
“++” (≥20% = ++)	222 (NLIENVQRL; listed as Homo sapiens) [compound 222]
“+++” (≥50 = +++)	300 (ALLGQTFSL; listed as Homo sapiens) [compound 300]
“+++” (≥50 = +++)	70 (GLLDYPVGV; listed as Homo sapiens) [compound 70]
“++++” (≥75% = ++++)	53 (KMIETDILQKV; listed as Homo sapiens) [compound 53]
“++++” (≥75% = ++++)	126 (VLAYFLPEA; listed as Homo sapiens) [compound 126]
“++” (≥20% = ++)	92 (YLIPFTGIVGL; listed as Homo sapiens) [compound 92]
“+++” (≥50 = +++)	467 (FLAKDFNFL; listed as Homo sapiens) [compound 467]
“+++” (≥50 = +++)	528 (SVAEGRALMSV; listed as Homo sapiens) [compound 528]
“++++” (≥75% = ++++)	19 (FMVDNEAIYDI; listed as Homo sapiens) [compound 19]
“+++” (≥50 = +++)	474 (YLDPALELGPRNV; listed as Homo sapiens) [compound 474]
“++” (≥20% = ++)	258 (ELAERVPAI; listed as Homo sapiens) [compound 258]
“++++” (≥75% = ++++)	320 (KMFEFVEPLL; listed as Homo sapiens) [compound 320]
“+++” (≥50 = +++)	183 (FGLDLVTEL; listed as Homo sapiens) [compound 183]
“+++” (≥50 = +++)	311 (RLYTGMHTV; listed as Homo sapiens) [compound 311]
“+++” (≥50 = +++)	464 (ALNDCIYSV; listed as Homo sapiens) [compound 464]
“+++” (≥50 = +++)	6 (VLVSDGVHSV; listed as Homo sapiens) [compound 6]
“++” (≥20% = ++)	261 (YVLEFLEEI; listed as Homo sapiens) [compound 261]
“+++” (≥50 = +++)	179 (KVLNELYTV; listed as Homo sapiens) [compound 179]
“++++” (≥75% = ++++)	77 (ILVEADGAWVV; listed as Homo sapiens) [compound 77]
“++” (≥20% = ++)	389 (LLADVTHLL; listed as Homo sapiens) [compound 389]
“+++” (≥50 = +++)	561 (YLQLTQSEL; listed as Homo sapiens) [compound 561]
“++++” (≥75% = ++++)	137 (TLVLTLPTV; listed as Homo sapiens) [compound 137]
“+” (≥10% = +)	230 (ILVDWLVEV; listed as Homo sapiens) [compound 230]
“+++” (≥50 = +++)	543 (GLLPTPITQQASL; listed as Homo sapiens) [compound 543]

Peptide exchange	Substance
“++++” (≥75% = ++++)	395 (ALALGGIAVV; listed as Homo sapiens) [compound 395]
“++” (≥20% = ++)	277 (LLPPLESLATV; listed as Homo sapiens) [compound 277]
“++++” (≥75% = ++++)	196 (YLYSVEIKL; listed as Homo sapiens) [compound 196]
“+++” (≥50 = +++)	135 (ALSEVDFQL; listed as Homo sapiens) [compound 135]
“+++” (≥50 = +++)	149 (NLLELFVQL; listed as Homo sapiens) [compound 149]
“+++” (≥50 = +++)	136 (YLADPSNLFVV; listed as Homo sapiens) [compound 136]
“++” (≥20% = ++)	128 (YLFDDPLSAV; listed as Homo sapiens) [compound 128]
“+++” (≥50 = +++)	54 (SLLEQGKEPWMV; listed as Homo sapiens) [compound 54]
“+++” (≥50 = +++)	567 (SLLPLDDIVRV; listed as Homo sapiens) [compound 567]
“++” (≥20% = ++)	380 (TLIEDEIATI; listed as Homo sapiens) [compound 380]
“+++” (≥50 = +++)	508 (ILAQEQLVVGV; listed as Homo sapiens) [compound 508]
“+++” (≥50 = +++)	139 (SVMEVNSGIYRV; listed as Homo sapiens) [compound 139]
“++” (≥20% = ++)	87 (ALPEAPAPLLPHIT; listed as Homo sapiens) [compound 87]
“++” (≥20% = ++)	461 (VMFRTPLASV; listed as Homo sapiens) [compound 461]
“++” (≥20% = ++)	455 (SLLKEPQKVQL; listed as Homo sapiens) [compound 455]
“+++” (≥50 = +++)	14 (AAYGGLNEKSFV; listed as Homo sapiens) [compound 14]
“+++” (≥50 = +++)	515 (LLQELVLFL; listed as Homo sapiens) [compound 515]
“+++” (≥50 = +++)	25 (FLPDEPYIKV; listed as Homo sapiens) [compound 25]
“+++” (≥50 = +++)	315 (YLQDVVEQA; listed as Homo sapiens) [compound 315]
“++” (≥20% = ++)	64 (YAAPGGLIGV; listed as Homo sapiens) [compound 64]
“+++” (≥50 = +++)	370 (SLLQDLVSV; listed as Homo sapiens) [compound 370]
“+++” (≥50 = +++)	316 (ILLERLWYV; listed as Homo sapiens) [compound 316]
“+++” (≥50 = +++)	564 (TVTNAVVTV; listed as Homo sapiens) [compound 564]
“+++” (≥50 = +++)	175 (YLFENISQL; listed as Homo sapiens) [compound 175]
“+++” (≥50 = +++)	547 (TLDITPHTV; listed as Homo sapiens) [compound 547]
“+++” (≥50 = +++)	22 (IMEENPGIFAV; listed as Homo sapiens) [compound 22]
